Measurements as given in PMC9407465.

How the values were obtained:
GLI2 level in Daoy cells = details: glycan lost; control: DMSO
[1] = IP and acetylation immunoblot
[2] = Gli2 level in primary GNPs; details: glycan lost; control: untreated GNPs
[3] = Bcl2 promoter luciferase, HEK293T; details: WT Gli2
[4] = IP immunoblot from P30 cerebellum; details: glycan lost; control: SmoM2Atoh1 mice

B1: human GLI2: OSMI-1 (protein)
parent chain: METSASATASEKQEAKSGILEAAGFPDPGKKASPLVVAAAAAAAVAAQGVPQHLLPPFHAPLPIDMRHQEGRYHYEPHSVHGVHGPPALSGSPVISDISLIRLSPHPAGPGESPFNAPHPYVNPHMEHYLRSVHSSPTLSMISAARGLSPADVAQEHLKERGLFGLPAPGTTPSDYYHQMTLVAGHPAPYGDLLMQSGGAASAPHLHDYLNPVDVSRFSSPRVTPRLSRKRALSISPLSDASLDLQRMIRTSPNSLVAYINNSRSSSAASGSYGHLSAGALSPAFTFPHPINPVAYQQILSQQRGLGSAFGHTPPLIQPSPTFLAQQPMALTSINATPTQLSSSSNCLSDTNQNKQSSESAVSSTVNPVAIHKRSKVKTEPEGLRPASPLALTQGQVSGHGSCGCALPLSQEQLADLKEDLDRDDCKQEAEVVIYETNCHWEDCTKEYDTQEQLVHHINNEHIHGEKKEFVCRWQACTREQKPFKAQYMLVVHMRRHTGEKPHKCTFEGCSKAYSRLENLKTHLRSHTGEKPYVCEHEGCNKAFSNASDRAKHQNRTHSNEKPYICKIPGCTKRYTDPSSLRKHVKTVHGPDAHVTKKQRNDVHLRTPLLKENGDSEAGTEPGGPESTEASSTSQAVEDCLHVRAIKTESSGLCQSSPGAQSSCSSEPSPLGSAPNNDSGVEMPGTGPGSLGDLTALDDTPPGADTSALAAPSAGGLQLRKHMTTMHRFEQLKKEKLKSLKDSCSWAGPTPHTRNTKLPPLPGSGSILENFSGSGGGGPAGLLPNPRLSELSASEVTMLSQLQERRDSSTSTVSSAYTVSRRSSGISPYFSSRRSSEASPLGAGRPHNASSADSYDPISTDASRRSSEASQCSGGSGLLNLTPAQQYSLRAKYAAATGGPPPTPLPGLERMSLRTRLALLDAPERTLPAGCPRPLGPRRGSDGPTYGHGHAGAAPAFPHEAPGGGARRASDPVRRPDALSLPRVQRFHSTHNVNPGPLPPCADRRGLRLQSHPSTDGGLARGAYSPRPPSISENVAMEAVAAGVDGAGPEADLGLPEDDLVLPDDVVQYIKAHASGALDEGTGQVYPTESTGFSDNPRLPSPGLHGQRRMVAADSNVGPSAPMLGGCQLGFGAPSSLNKNNMPVQWNEVSSGTVDALASQVKPPPFPQGNLAVVQQKPAFGQYPGYSPQGLQASPGGLDSTQPHLQPRSGAPSQGIPRVNYMQQLRQPVAGSQCPGMTTTMSPHACYGQVHPQLSPSTISGALNQFPQSCSNMPAKPGHLGHPQQTEVAPDPTTMGNRHRELGVPDSALAGVPPPHPVQSYPQQSHHLAASMSQEGYHQVPSLLPARQPGFMEPQTGPMGVATAGFGLVQPRPPLEPSPTGRHRGVRAVQQQLAYARATGHAMAAMPSSQETAEAVPKGAMGNMGSVPPQPPPQDAGGAPDHSMLYYYGQIHMYEQDGGLENLGSCQVMRSQPPQPQACQDSIQPQPLPSPGVNQVSSTVDSQLLEAPQIDFDAIMDDGDHSSLFSGALSPSLLHSLSQNSSRLTTPRNSLTLPSIPAGISNMAVGDMSSMLTSLAEESKFLNMMT
- expression_or_secretion (GLI2 level in Daoy cells): decreases

B2: Gli2 (GLI family zinc finger 2): OSMI-1 (protein)
parent chain: METSAPAPALEKKEAKSGLLEDSSFPDPGKKACPLAVAAAVAAHGVPQQLLPAFHAPLPIDMRHQEGRYHYDPHSVHSVHGPPTLSGSPVISDISLIRLSPHPAGPGESPFSAHHPYVNPHMEHYLRSVHSSPTLSMISAARGLSPADVAHEHLKERGLFSLAAPGTNPSDYYHQMTLMASHPTPYGDLLMQSGGAASAPHLHDYLNPVDASRFSSPRVTPRLSRKRALSISPLSDASLDLQRMIRTSPNSLVAYINNSRSSSAASGSYGHLSAGALSPAFTFPHPINPVAYQQILSQQRGLGSAFGHTPPLIQPSPTFLAQQPMTLTSISTMPTQLSSSSSNCLNDANQNKQNSESAVSSTVNPITIHKRSKVKTEAEGLRPASPLGLTQEQLADLKEDLDRDDCKQEAEVVIYETNCHWADCTKEYDTQEQLVHHINNEHIHGEKKEFVCRWQACTREQKPFKAQYMLVVHMRRHTGEKPHKCTFEGCSKAYSRLENLKTHLRSHTGEKPYVCEHEGCNKAFSNASDRAKHQNRTHSNEKPYICKIPGCTKRYTDPSSLRKHVKTVHGPDAHVTKKQRNDVHVRAPLLKENGDNEASAEPGGRGPEESVEASSTSHTVEDCLHIKAIKTESSGLCQSSPGAQSSCSSEPSPLGSAPNNDSGMEMPGTGPGSLGDLTALADTCPGADTSALAAPSTGGLQLRKHMSTVHRFEQLKREKLKSLKDSCSWAGPAPHTRNTKLPPLPVNGSVLENFNNTGGGGPAGLLPSQRLPELTEVTMLSQLQERRDSSTSTMSSAYTVSRRSSGISPYFSSRRSSEASPLGGLRPHNASSADSYDPISTDASRRSSEASQCSGGGPGLLNLTPAQQYNLRAKYAAATGGPPPTPLPGLDRVSLRTRLALLDAPERALPGACPHPLGPRRGSDGPTYSHGHGHGYAGAAPAFPHEGPNSSTRRASDPVRRPDPLILPRVQRFHSTHNMNPGSLPPCADRRGLHVQSHPSVDSNLTRNAYSPRPPSINENVVMEAVAAGVDGPGLECDLGLVEDELVLPDDVVQYIKAHTGGTLDDGIRQGYPTEGTGFPENSKLPSPGLQGHRRLAAADSNMGPSAPGLGGCQLSYSPSSNLNKSNMPVQWNEVSSGTVDALPTQVKPPPFPHSNLAVVQQKPAFGQYPGYNPQSVQSSSGGLDSTQPHLQLRGAPSASRGSYTQQPRQPAAGSQCLGMSAAMSPQASYSQAHPQLSPNIVSGSLNQFSPSCSNMAAKPSHLGLPQQMEVVPNATIMNGHQREHGVPNSSLAAVSQPHPVLSYPQQDSYQQGSNLLSSHQPGFMESQQNAGFGLMQPRPPLEPNTASRHRGVRSGQQQLYARTTGQAMVTSANQETAEAMPKGPAGTMVSLAPQPSQDTGRAQDQNTLYYYGQIHMYEQNGGCPAVQPQPPQPQACSDSIQPEPLPSPGVNQVSSTVDSQLLEPPQIDFDAIMDDGDHSSLFSGALSPTLLHNLSQNSSRLTTPRNSLTLPSIPAGISNMAVGDMSSMLTSLAEESKFLNMMT
- other: Gli2 acetylation ([1]; glycan lost, control: untreated, WT Gli2): increases
- expression_or_secretion [2]: decreases
- other: transcriptional activity ([3]; glycan lost, control: DMSO): decreases

B3: Gli2 (GLI family zinc finger 2): SmoM2Atoh1;OGTAtoh1 (OGT knockout in GNPs) (protein)
parent chain: B2 parent chain
- other: Gli2 acetylation [4]: increases

B4: Gli2 (GLI family zinc finger 2): OGT overexpression (protein)
parent chain: B2 parent chain
- other: Gli2 acetylation ([1]; glycan gained, control: without OGT overexpression): decreases
- other: transcriptional activity ([3]; glycan gained, control: pEGFP-C1 vector): increases
